Measurements taken from paper PMC12344899.

Legend:
Experiment in all cases: anti-GFP affinity gel immunoprecipitation and western blot densitometry
[1] = target: mCherry-A123; conditions: HEK293T cells co-transfected, lysed at 2 dpt; parent: est. 0.97; read off a plot
[2] = target: mCherry-A171; conditions: HEK293T cells co-transfected, lysed at 2 dpt; parent: est. 1.0; read off a plot
[3] = target: mCherry-A44; conditions: HEK293T cells co-transfected, lysed at 2 dpt; parent: est. 1.0; read off a plot

Etf-2 (full-length)–GFP (from UniProt Q2GHK1) Q245A
response (relative density (intrabody / Etf-2-GFP)) [1]: 0.84 | response (relative density (intrabody / Etf-2-GFP)) [2]: 0.83 | response (relative density (intrabody / Etf-2-GFP)) [3]: 0.25

Etf-2 (full-length)–GFP (from UniProt Q2GHK1) R188A
response (relative density (intrabody / Etf-2-GFP)) [1]: 0.94 | response (relative density (intrabody / Etf-2-GFP)) [2]: 0.85 | response (relative density (intrabody / Etf-2-GFP)) [3]: 1.1

Etf-2 (full-length)–GFP (from UniProt Q2GHK1) R188A; Q245A
response (relative density (intrabody / Etf-2-GFP)) [1]: 0.1 | response (relative density (intrabody / Etf-2-GFP)) [2]: 0.88 | response (relative density (intrabody / Etf-2-GFP)) [3]: 0.24
